This series in a line: total protein half-life in vivo (active degradation + dilution); higher = more stable protein.
The mark [1] stands for this setting: E. coli NCM3722 delta-clpP delta-lon delta-hslV, growth: N-lim chemostat, doubling time 6 h.
Setting [2] is: E. coli NCM3722 delta-clpP, growth: N-lim chemostat, doubling time 6 h.
Setting [3] is: E. coli NCM3722 delta-hslV, growth: N-lim chemostat, doubling time 6 h.
[4] abbreviates: E. coli NCM3722 delta-lon, growth: N-lim chemostat, doubling time 6 h.
[5] abbreviates: E. coli NCM3722 delta-smpB, growth: N-lim chemostat, doubling time 6 h.
Setting [6] is: wild type E. coli NCM3722, growth: C-lim chemostat, doubling time 3 h.
The mark [7] stands for this setting: wild type E. coli NCM3722, growth: C-lim chemostat, doubling time 6 h.
Where [8] appears, read: wild type E. coli NCM3722, growth: C-lim chemostat, doubling time 12 h.
Setting [9] is: wild type E. coli NCM3722, growth: N-lim chemostat, doubling time 6 h.
Setting [10] is: wild type E. coli NCM3722, growth: N-lim chemostat, doubling time 12 h.
The mark [11] stands for this setting: wild type E. coli NCM3722, growth: P-lim chemostat, doubling time 6 h.
Setting [12] is: wild type E. coli NCM3722, growth: P-lim chemostat, doubling time 12 h.

± gives the standard deviation of the averaged measurements.

Data on eight sequences can be found in the supplement of paper PMC11246515.

Take “MNQIDRLLTIMQRLRDPENGCPWDKEQTFATIAPYTLEETYEVLDAIAREDFDDLRGELGDLLFQVVFYAQMAQEEGRFDFNDICAAISDKLERRHPHVFADSSAENSSEVLARWEQIKTEERAQKAQHSALDDIPRSLPALMRAQKIQKRCANVGFDWTTLGPVVDKVYEEIDEVMYEARQAVVDQAKLEEEMGDLLFATVNLARHLGTKAEIALQKANEKFERRFREVERIVAARGLEMTGVDLETMEEVWQQVKRQEIDL [P0AEY3]”: the “total protein half-life in vivo” value by setting is: under setting [1], 4.85 ± 0.48 h; under setting [2], 4.1 ± 0.46 h; under setting [3], 2.49 ± 0.062 h; under setting [4], 3.25 ± 0.4 h; under setting [5], 2.49 ± 0.12 h; under setting [6], 2.51 ± 0.056 h. In addition, the “total protein half-life in vivo” value reads like this: under setting [7], 5.06 ± 0.058 h; under setting [8], 6.42 ± 0.2 h; under setting [9], 2.624 ± 0.016 h; under setting [10], 3.29 ± 0.12 h; under setting [11], 3.61 ± 0.13 h; under setting [12], 6.14 ± 1.5 h.
With “MASISSLGVGSGLDLSSILDSLTAAQKATLTPISNQQSSFTAKLSAYGTLKSALTTFQTANTALSKADLFSATSTTSSTTAFSATTAGNAIAGKYTISVTHLAQAQTLTTRTTRDDTKTAIATSDSKLTIQQGGDKDPITIDISAANSSLSGIRDAINNAKAGVSASIINVGNGEYRLSVTSNDTGLDNAMTLSVSGDDALQSFMGYDASASSNGMEVSVAAQNAQLTVNNVAIENSSNTISDALENITLNLNDVTTGNQTLTITQDTSKAQTAIKDWVNAYNSLIDTFSSLTKYTAVDAGADSQSSSNGALLGDSTLRTIQTQLKSMLSNTVSSSSYKTLAQIGITTDPSDGKLELDADKLTAALKKDASGVGALIVGDGKKTGITTTIGSNLTSWLSTTGIIKAATDGVSKTLNKLTKDYNAASDRIDAQVARYKEQFTQLDVLMTSLNSTSSYLTQQFENNSNSK”, the “total protein half-life in vivo” value is, setting by setting: under setting [2], over 8 h; under setting [3], over 8 h; under setting [5], over 8 h; under setting [6], 1.4 ± 0.12 h; under setting [7], 0.627 ± 0.1 h; under setting [8], 0.906 ± 0.44 h. For the same sequence, the “total protein half-life in vivo” value by setting is: under setting [10], over 16 h; under setting [11], over 8 h; under setting [12], over 16 h.
For the sequence “MQDKDFFSWRRTMLLRFQRMETAEEVYHEIELQAQQLEYDYYSLCVRHPVPFTRPKVAFYTNYPEAWVSYYQAKNFLAIDPVLNPENFSQGHLMWNDDLFSEAQPLWEAARAHGLRRGVTQYLMLPNRALGFLSFSRCSAREIPILSDELQLKMQLLVRESLMALMRLNDEIVMTPEMNFSKREKEILRWTAEGKTSAEIAMILSISENTVNFHQKNMQKKINAPNKTQVACYAAATGLI”, the “total protein half-life in vivo” value under setting [1] was found to be 4.97 ± 0.28 h.
For the sequence “MTDVLLCVGNSMMGDDGAGPLLAEKCAAAPKGNWVVIDGGSAPENDIVAIRELRPTRLLIVDATDMGLNPGEIRIIDPDDIAEMFMMTTHNMPLNYLIDQLKEDIGEVIFLGIQPDIVGFYYPMTQPIKDAVETVYQRLEGWEGNGGFAQLAVEEE [P0AEV9]”, the “total protein half-life in vivo” value under setting [1] was 4.89 h; the “total protein half-life in vivo” value under setting [2] was determined as 4.16 h; the “total protein half-life in vivo” value under setting [3] amounted to 3.67 ± 0.094 h; the “total protein half-life in vivo” value under setting [4] stood at 4.17 h; the “total protein half-life in vivo” value under setting [5] was 3.72 ± 0.15 h; the “total protein half-life in vivo” value under setting [6] was determined as 3.29 ± 0.42 h. Also, the “total protein half-life in vivo” value came out at 5.01 ± 0.2 h under setting [7]; 8.74 h under setting [8]; 4.6 h under setting [9]; 6.23 h under setting [10]; 9.42 ± 0.22 h under setting [12].
As to “MRIFVYGSLRHKQGNSHWMTNAQLLGDFSIDNYQLYSLGHYPGAVPGNGTVHGEVYRIDNATLAELDALRTRGGEYARQLIQTPYGSAWMYVYQRPVDGLKLIESGDWLDRDK [P0AE48]”, the “total protein half-life in vivo” value came out at 5.12 ± 0.42 h under setting [1]; 4.63 ± 0.19 h under setting [2]; 4.95 ± 0.15 h under setting [3]; 5.345 ± 0.014 h under setting [4]; 5 ± 0.3 h under setting [5]; 2.57 ± 0.21 h under setting [6]. In addition, the “total protein half-life in vivo” value is, setting by setting: under setting [7], 5.316 ± 0.012 h; under setting [8], 8.87 ± 0.3 h; under setting [9], 4.49 ± 0.61 h; under setting [10], 7.76 ± 0.7 h; under setting [11], 5.27 ± 0.36 h; under setting [12], 11.5 ± 1.6 h.
On to “MKPVKPPRINGRVPVLSAQEAVNYIPDEATLCVLGAGGGILEATTLITALADKYKQTQTPRNLSIISPTGLGDRADRGISPLAQEGLVKWALCGHWGQSPRISELAEQNKIIAYNYPQGVLTQTLRAAAAHQPGIISDIGIGTFVDPRQQGGKLNEVTKEDLIKLVEFDNKEYLYYKAIAPDIAFIRATTCDSEGYATFEDEVMYLDALVIAQAVHNNGGIVMMQVQKMVKKATLHPKSVRIPGYLVDIVVVDPDQTQLYGGAPVNRFISGDFTLDDSTKLSLPLNQRKLVARRALFEMRKGAVGNVGVGIADGIGLVAREEGCADDFILTVETGPIGGITSQGIAFGANVNTRAILDMTSQFDFYHGGGLDVCYLSFAEVDQHGNVGVHKFNGKIMGTGGFIDISATSKKIIFCGTLTAGSLKTEITDGKLNIVQEGRVKKFIRELPEITFSGKIALERGLDVRYITERAVFTLKEDGLHLIEIAPGVDLQKDILDKMDFTPVISPELKLMDERLFIDAAMGFVLPEAAH”, for which the “total protein half-life in vivo” value was 5.68 ± 0.1 h under setting [1]; 4.03 ± 0.058 h under setting [2]; 3.94 ± 0.05 h under setting [3]; 4.17 ± 0.1 h under setting [4]; 3.728 ± 0.031 h under setting [5]; 2.75 ± 0.29 h under setting [6]. In addition, the “total protein half-life in vivo” value was found to be 5.2 ± 0.61 h under setting [7]; 10.7 ± 1.1 h under setting [8]; 3.81 ± 0.14 h under setting [9]; 6.72 ± 0.91 h under setting [10]; 6.39 ± 0.56 h under setting [11]; 11.1 ± 0.4 h under setting [12].
On to “MTTIVSVRRNGHVVIAGDGQATLGNTVMKGNVKKVRRLYNDKVIAGFAGGTADAFTLFELFERKLEMHQGHLVKAAVELAKDWRTDRMLRKLEALLAVADETASLIITGNGDVVQPENDLIAIGSGGPYAQAAARALLENTELSAREIAEKALDIAGDICIYTNHFHTIEELSYKA [P0A7B8]”, for which the “total protein half-life in vivo” value is, setting by setting: under setting [2], 5.42 ± 0.062 h; under setting [4], 6.49 ± 0.19 h; under setting [5], 5.3 ± 0.5 h; under setting [6], 2.72 ± 0.33 h; under setting [7], 6.23 ± 0.091 h; under setting [8], 10.2 ± 1.4 h. Besides, the “total protein half-life in vivo” value under setting [9] was found to be 5.716 ± 0.023 h, the “total protein half-life in vivo” value under setting [10] stood at 9.85 ± 1 h and the “total protein half-life in vivo” value under setting [11] was found to be 5.74 ± 0.23 h.
Consider “MKTSRLPIAIQQAVMRRLREKLAQANLKLGRNYPEPKLSYTQRGTSAGTAWLESYEIRLNPVLLLENSEAFIEEVVPHELAHLLVWKHFGRVAPHGKEWKWMMENVLGVPARRTHQFELQSVRRNTFPYRCKCQEHQLTVRRHNRVVRGEAVYRCVHCGEQLVAK”, for which the “total protein half-life in vivo” value under setting [1] turned out to be 4.81 ± 0.12 h and the “total protein half-life in vivo” value under setting [8] stood at 5.52 h.
